The values below come from patent US20250011433A1 (GLIKNIK, published 2025).

In one test the target is T1, C3 complement component (UniProt P01024 23-1663).
T1 construct: bought protein coated on ELISA plates at 1 µg/ml
Briefly: ELISA on coated C3. On the technique in general: ELISA stands for enzyme-linked immunosorbent assay.

Another test has as its target T2, FcγRI (UniProt P12314 16-288).
T2 construct: also called CD64
Briefly: BLI (Octet). (In general: In BLI a coated tip is dipped into the sample, and binding shifts an interference pattern.)

Test [1] has as its target T3, FcγRIIb (UniProt P31994 46-217, limits assumed).
T3 sequence (looked up): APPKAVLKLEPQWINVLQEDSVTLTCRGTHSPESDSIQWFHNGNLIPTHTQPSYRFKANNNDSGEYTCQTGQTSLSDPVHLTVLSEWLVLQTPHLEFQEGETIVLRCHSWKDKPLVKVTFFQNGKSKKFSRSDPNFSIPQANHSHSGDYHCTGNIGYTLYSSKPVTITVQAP
Kind of test: BLI (Octet).

The target in the next test is T4, mouse FcγRIIb (mouse, UniProt P08101 30-207, limits assumed).
T4 sequence (looked up): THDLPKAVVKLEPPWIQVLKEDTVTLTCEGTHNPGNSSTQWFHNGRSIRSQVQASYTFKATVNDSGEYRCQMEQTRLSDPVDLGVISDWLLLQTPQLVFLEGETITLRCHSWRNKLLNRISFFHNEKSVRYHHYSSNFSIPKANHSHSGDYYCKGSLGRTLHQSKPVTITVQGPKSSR
Briefly: BLI (Octet), FIG. 19 bottom panels.

The target of a further test is T5, mouse FcγRIII (mouse, UniProt P08508 31-215, limits assumed).
T5 sequence (looked up): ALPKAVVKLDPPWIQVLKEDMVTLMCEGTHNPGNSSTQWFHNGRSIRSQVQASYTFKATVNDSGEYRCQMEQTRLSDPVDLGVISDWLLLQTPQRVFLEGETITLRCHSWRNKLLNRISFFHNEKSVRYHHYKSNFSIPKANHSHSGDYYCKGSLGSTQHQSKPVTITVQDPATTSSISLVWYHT
Briefly: BLI (Octet), FIG. 19 bottom panels.

For another test, the target named is T6, mouse FcγRIV (mouse, UniProt A0A0B4J1G0 21-203).
T6 construct: not shown: any purification tag (e.g. His tag) on the soluble recombinant receptor used in biolayer interferometry; not described in the passages seen
T6 sequence: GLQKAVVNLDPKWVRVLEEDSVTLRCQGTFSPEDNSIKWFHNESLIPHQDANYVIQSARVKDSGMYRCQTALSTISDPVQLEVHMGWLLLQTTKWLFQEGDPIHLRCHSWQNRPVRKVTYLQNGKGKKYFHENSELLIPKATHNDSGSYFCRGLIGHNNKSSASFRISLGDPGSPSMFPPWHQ
Briefly: BLI (Octet), FIG. 19 bottom panels.

Another test addresses T7, C1q (UniProt P02745 23-245; P02746 28-253; P02747 29-245).
T7 construct: bought C1q coated on ELISA plates at 1 µg/ml; also called complement C1q; complement factor C1q
Kind of test: ELISA on coated C1q. In short, it runs like this:
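Plates coated overnight with C1q at 1 μg/ml in PBS, blocked with 1% BSA, then incubated with compound. Bound compound detected by biotinylated anti-human IgG1 (1:5000) plus streptavidin-HRP, 1 h at RT; TMB developed 15 min, absorbance at 450 nm.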

For the next test, the target named is FcγRIIIa (UniProt P08637 17-208). Briefly: BLI (Octet); legend: - indicates no binding. As to the method:
(§1) Binding of complement-preferential stradomers or parent stradomer G045c to FcγRI, FcγRIIb, FcγRIIIa, FcγRIIa, or FcRn was assessed. RU values of dissociation were measured by biolayer interferometry using a ForteBio Octet instrument. His-tagged receptor proteins were bound to the sensor tip in 1× kinetic analysis buffer from ForteBio after which the on rate of the receptor/protein was measured by transferring the sensor tip to a 1× kinetics buffer containing the purified stradomer of choice. Off rate was measured by transferring the sensor tip to a 1× kinetics buffer, and RU value was calculated from the measured maximum binding using the ForteBio software. Biolayer interferometry detects the binding between a ligand immobilized on the biosensor tip surface and an analyte in solution. When binding occurs it produces an increase in optical thickness at the biosensor tip, which results in a wavelength shift (detected as a response unit of “RU”). The maximum binding level (RU max) is the maximum possible amount of sample binding at equilibrium that saturates the amount of ligand on the sensor surface. The RU 300 is the residual sample binding after 300 seconds of dissociation and is useful to characterize the rate of dissociation of the test article from the test ligand.

In test [2] the target is T3, FcγRIIb. Kind of test: BLI (Octet); legend: - indicates no binding. The protocol: as §1

Sequence of FcγRIIIa (P08637 17-208 limits assumed): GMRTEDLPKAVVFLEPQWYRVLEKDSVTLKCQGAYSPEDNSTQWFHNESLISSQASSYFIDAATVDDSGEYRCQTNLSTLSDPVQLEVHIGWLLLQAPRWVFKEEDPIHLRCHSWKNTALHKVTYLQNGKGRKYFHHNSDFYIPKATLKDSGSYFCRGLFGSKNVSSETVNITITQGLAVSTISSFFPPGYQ
T7 sequence (P02745 23-245 limits assumed, chain 1 of 3): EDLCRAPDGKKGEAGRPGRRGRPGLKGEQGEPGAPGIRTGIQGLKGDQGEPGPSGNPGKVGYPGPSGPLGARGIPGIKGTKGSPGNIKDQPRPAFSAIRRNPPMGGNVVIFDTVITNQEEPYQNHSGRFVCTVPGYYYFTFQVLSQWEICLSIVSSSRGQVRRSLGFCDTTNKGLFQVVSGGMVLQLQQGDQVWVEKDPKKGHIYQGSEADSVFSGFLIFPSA
T7 sequence (P02746 28-253 limits assumed, chain 2 of 3): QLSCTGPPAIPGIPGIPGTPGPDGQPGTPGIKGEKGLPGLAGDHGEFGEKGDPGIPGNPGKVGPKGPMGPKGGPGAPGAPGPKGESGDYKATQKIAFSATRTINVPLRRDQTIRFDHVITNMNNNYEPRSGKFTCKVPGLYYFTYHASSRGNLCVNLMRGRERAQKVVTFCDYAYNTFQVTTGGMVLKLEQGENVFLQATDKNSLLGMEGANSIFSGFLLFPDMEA
T7 sequence (P02747 29-245 limits assumed, chain 3 of 3): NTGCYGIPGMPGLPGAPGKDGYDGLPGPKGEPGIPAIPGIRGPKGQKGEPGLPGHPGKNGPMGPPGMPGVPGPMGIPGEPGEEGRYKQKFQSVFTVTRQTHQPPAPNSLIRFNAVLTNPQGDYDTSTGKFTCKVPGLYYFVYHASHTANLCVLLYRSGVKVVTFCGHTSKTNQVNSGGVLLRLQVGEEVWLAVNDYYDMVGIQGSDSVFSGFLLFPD
T2 sequence (P12314 16-288 limits assumed): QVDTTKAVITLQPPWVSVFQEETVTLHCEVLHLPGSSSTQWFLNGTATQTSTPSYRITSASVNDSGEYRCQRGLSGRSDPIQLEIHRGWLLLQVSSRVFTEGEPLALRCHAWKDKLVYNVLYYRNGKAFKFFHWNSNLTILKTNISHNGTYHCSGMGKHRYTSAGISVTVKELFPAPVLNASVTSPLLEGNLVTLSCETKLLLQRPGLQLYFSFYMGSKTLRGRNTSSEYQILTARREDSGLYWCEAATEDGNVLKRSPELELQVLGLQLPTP

B1: G996 (Fc fusion)
chain: EPKSCDKTHTCPPCPAPELLRGPSVFLFPPKPKDTLMISRTPEVTCVVVDVEFEDPEVKFNWYVDGVEVHNAKTKPREEQYNSTYRVVSVLTVLHQDWLNGKEYKCKVTNKALPAPIEKTISKAKGQPREPQVYTLPPSRDELTKNQVSLTCLVKGFYPSDIAVEWESNGQPENNYKTTPPVLDSDGSFFLYSKLTVDKSRWQQGNVFSCSVMHEALHNHYTQKSLSLSPGKERKCCVECPPCP
notes: G045c background, G236R/S267E/H268F/S324T; leader 1-20 cleaved
With B1, the binding result is reported as “no binding (tested: 100 µg/ml top concentration)” with C3 complement component; “binds” with FcγRI; “binds” with FcγRIIb [1]; “no binding” with mouse FcγRIIb; “no binding” with mouse FcγRIII; “no binding” with mouse FcγRIV. The binding result with C1q is on record as “binds”; with FcγRIIIa, “no binding”.

B2: G1033 (Fc fusion)
chain: EPKSCDKTHTCPPCPAPEAAGGPSVFLFPPKPKDTLMISRTPEVTCVVVDVEFEDPEVKFNWYVDGVEVHNAKTKPREEQYASTYRVVSVLTVLHQDWLNGKEYKCKVTNKALPAPIEKTISKAKGQPREPQVYTLPPSRDELTKNQVSLTCLVKGFYPSDIAVEWESNGQPENNYKTTPPVLDSDGSFFLYSKLTVDKSRWQQGNVFSCSVMHEALHNHYTQKSLSLSPGKERKCCVECPPCP
notes: G045c background, L234A/L235A/S267E/H268F/N297A/S324T; leader 1-20 cleaved; also called G1033 (DEL); G1033 (EEM)
B2: the binding result in the test with FcγRI is listed as “binds”; with C1q, “binds”; with FcγRIIIa, “no binding”; with FcγRIIb [2] it was “no binding”.
